Reference: article PMC5793714, “Functional implications of corticosteroid-binding globulin N-glycosylation” (Journal of Molecular Endocrinology, 2017)

Experiments:
[1] = Western blot of medium; conditions: glycan lost, control: untreated CHO-S cells
[2] = Western blot of culture medium; conditions: glycan lost; control: rat CBG
[3] = loss of cortisol-binding capacity after protease incubation; conditions: glycan lost; control: un-mutated CBG

B1: rat CBG: tunicamycin (protein)
parent chain: MSLALYTCLLWLCTSGLWTAQASTNESSNSHRGLAPTNVDFAFNLYQRLVALNPDKNTLISPVSISMALAMVSLGSAQTQSLQSLGFNLTETSEAEIHQSFQYLNYLLKQSDTGLEMNMGNAMFLLQKLKLKDSFLADVKQYYESEALAIDFEDWTKASQQINQHVKDKTQGKIEHVFSDLDSPASFILVNYIFLRGIWELPFSPENTREEDFYVNETSTVKVPMMVQSGSIGYFRDSVFPCQLIQMDYVGNGTAFFILPDQGQMDTVIAALSRDTIDRWGKLMTPRQVNLYIPKFSISDTYDLKDMLEDLNIKDLLTNQSDFSGNTKDVPLTLTMVHKAMLQLDEGNVLPNSTNGAPLHLRSEPLDIKFNKPFILLLFDKFTWSSLMMSQVVNPA
- expression_or_secretion, other: % of untreated [1]: decreases

B2: rat CBG: N230D (protein)
parent chain: MSLALYTCLLWLCTSGLWTAQASTNESSNSHRGLAPTNVDFAFNLYQRLVALNPDKNTLISPVSISMALAMVSLGSAQTQSLQSLGFNLTETSEAEIHQSFQYLNYLLKQSDTGLEMNMGNAMFLLQKLKLKDSFLADVKQYYESEALAIDFEDWTKASQQINQHVKDKTQGKIEHVFSDLDSPASFILVNYIFLRGIWELPFSPENTREEDFYVNETSTVKVPMMVQSGSIGYFRDSVFPCQLIQMDYVGNGTAFFILPDQGQMDTVIAALSRDTIDRWGKLMTPRQVNLYIPKFSISDTYDLKDMLEDLNIKDLLTNQSDFSGNTKDVPLTLTMVHKAMLQLDEGNVLPNSTNGAPLHLRSEPLDIKFNKPFILLLFDKFTWSSLMMSQVVNPA
- expression_or_secretion [2]: no change

B3: human CBG (corticosteroid-binding globulin): tunicamycin (human CBG) (protein)
parent chain: MPLLLYTCLLWLPTSGLWTVQAMDPNAAYVNMSNHHRGLASANVDFAFSLYKHLVALSPKKNIFISPVSISMALAMLSLGTCGHTRAQLLQGLGFNLTERSETEIHQGFQHLHQLFAKSDTSLEMTMGNALFLDGSLELLESFSADIKHYYESEVLAMNFQDWATASRQINSYVKNKTQGKIVDLFSGLDSPAILVLVNYIFFKGTWTQPFDLASTREENFYVDETTVVKVPMMLQSSTISYLHDSELPCQLVQMNYVGNGTVFFILPDKGKMNTVIAALSRDTINRWSAGLTSSQVDLYIPKVTISGVYDLGDVLEEMGIADLFTNQANFSRITQDAQLKSSKVVHKAVLQLNEEGVDTAGSTGVTLNLTSKPIILRFNQPFIIMIFDHFTWSSLFLARVMNPV
- expression_or_secretion, other: % of untreated ([1]; same construct): decreases

B4: human CBG (corticosteroid-binding globulin): N347Q (protein)
parent chain: MPLLLYTCLLWLPTSGLWTVQAMDPNAAYVNMSNHHRGLASANVDFAFSLYKHLVALSPKKNIFISPVSISMALAMLSLGTCGHTRAQLLQGLGFNLTERSETEIHQGFQHLHQLFAKSDTSLEMTMGNALFLDGSLELLESFSADIKHYYESEVLAMNFQDWATASRQINSYVKNKTQGKIVDLFSGLDSPAILVLVNYIFFKGTWTQPFDLASTREENFYVDETTVVKVPMMLQSSTISYLHDSELPCQLVQMNYVGNGTVFFILPDKGKMNTVIAALSRDTINRWSAGLTSSQVDLYIPKVTISGVYDLGDVLEEMGIADLFTNQANFSRITQDAQLKSSKVVHKAVLQLNEEGVDTAGSTGVTLNLTSKPIILRFNQPFIIMIFDHFTWSSLFLARVMNPV
- other: protease susceptibility [3]: increases

B5: human CBG (corticosteroid-binding globulin): tunicamycin (CBG N238) (protein)
parent chain: MPLLLYTCLLWLPTSGLWTVQAMDPNAAYVNMSNHHRGLASANVDFAFSLYKHLVALSPKKNIFISPVSISMALAMLSLGTCGHTRAQLLQGLGFNLTERSETEIHQGFQHLHQLFAKSDTSLEMTMGNALFLDGSLELLESFSADIKHYYESEVLAMNFQDWATASRQINSYVKNKTQGKIVDLFSGLDSPAILVLVNYIFFKGTWTQPFDLASTREENFYVDETTVVKVPMMLQSSTISYLHDSELPCQLVQMNYVGNGTVFFILPDKGKMNTVIAALSRDTINRWSAGLTSSQVDLYIPKVTISGVYDLGDVLEEMGIADLFTNQANFSRITQDAQLKSSKVVHKAVLQLNEEGVDTAGSTGVTLNLTSKPIILRFNQPFIIMIFDHFTWSSLFLARVMNPV
- expression_or_secretion, other: % of untreated ([1]; same construct): decreases

B6: human CBG (corticosteroid-binding globulin): T349A (protein)
parent chain: MPLLLYTCLLWLPTSGLWTVQAMDPNAAYVNMSNHHRGLASANVDFAFSLYKHLVALSPKKNIFISPVSISMALAMLSLGTCGHTRAQLLQGLGFNLTERSETEIHQGFQHLHQLFAKSDTSLEMTMGNALFLDGSLELLESFSADIKHYYESEVLAMNFQDWATASRQINSYVKNKTQGKIVDLFSGLDSPAILVLVNYIFFKGTWTQPFDLASTREENFYVDETTVVKVPMMLQSSTISYLHDSELPCQLVQMNYVGNGTVFFILPDKGKMNTVIAALSRDTINRWSAGLTSSQVDLYIPKVTISGVYDLGDVLEEMGIADLFTNQANFSRITQDAQLKSSKVVHKAVLQLNEEGVDTAGSTGVTLNLTSKPIILRFNQPFIIMIFDHFTWSSLFLARVMNPV
- other: protease susceptibility [3]: increases
